Here are results for two molecules from US20220389077A1, “ALLOGENEIC CELL COMPOSITIONS AND METHODS OF USE” (Poseida Therapeutics, Inc., priority 2018, published 2022).

One series relates to eK562-Luc.BCMA. In words: Luciferase killing assay, 48 hour co-culture. The series is classed as cell-based. The following applies: 10:1, 3:1, 1:1 E:T. The method, then: After secondary expansion, cells (Mock (WT T cells), WT CAR-T cells, DKO CAR-T cells, DKO CAR-T cells+CD2z CSR, and DKO CAR-T cells+CD28z CSR) were co-cultured with engineered K562-BCMA-Luciferase (eK562-Luc.BCMA) or negative control line K562-PSMA-Luciferase (eK562-Luc.PSMA) for 48 hours at 10:1, 3:1, or 1:1 E:T ratios. Luciferase signal was measured to determine cytotoxicity. Killing of eK562-Luc.PSMA is shown in dotted lines, while killing of eK562-Luc.BCMA is shown in solid lines. All CAR^+ T cells expressed an anti-BCMA specific CAR.
CSRs were delivered to CAR-T cells either transiently by mRNA or stably by piggyBac®. Pan T cells isolated from the blood of a normal donor were genetically modified using the piggyBac® DNA modification system and the standard Poseida process. Cells were co-electroporated in a single reaction with mRNA encoding the Super piggyBac™ transposase enzyme (SPB), a transposon encoding a BCMA CAR and selection gene, along with an additional mRNA encoding a CSR (either CD28z or CD2z; resulting in transient expression), or, with a transposon encoding a BCMA CAR, selection gene and a CSR (either CD28z or CD2z; resulting in stable expression). The cells were subsequently stimulated with agonist mAbs anti-CD2, anti-CD3 and anti-CD28, and were later selected for genetic modification over the course of a 19 day culture period. At the end of the initial culture period all T cells expressed the CAR, indicating successful selection for genetically-modified cells (data not shown). To assess CAR-T cell ability to kill, cells were co-cultured with engineered K562-BCMA-Luciferase (eK562-Luc.BCMA) or negative control line K562-Luciferase (eK562-Luc) for 48 hours at 10:1, 3:1, or 1:1 E:T ratios. Luciferase signal was measured to determine cytotoxicity. Killing of eK562-Luc is shown in bar graph on left, while killing of eK562-Luc.BCMA is shown in bar graph on right.

For series [1], the system named is CD45RA, CD45RO, and CD62L. In words: Memory phenotype by surface CD45RA, CD45RO and CD62L staining. The series is classed as cell-based, human. The following applies: WT and DKO CAR-T cells. The text has this: WT CAR-T cells, DKO CAR-T cells, DKO CAR-T cells+CD2z, and DKO CAR-T cells+CD28z were stained for expression of surface CD45RA, CD45RO, and CD62L to define Tscm, Tcm, Tem, and Teff cells; Tscm (CD45RA^+CD45RO^−CD62L^+), Tcm (CD45RA^−CD45RO^+CD62L^+), Tem (CD45RA^−CD45RO^+CD62L^−), Teff (CD45RA^+CD45RO^−CD62L^−). […] This phenotype may have a negative impact on the in vivo functionality of these CAR T cells since they appear to be more differentiated.
Allo CAR-T cells with no CSR and Allo CAR-Ts with CSR that was delivered either stably or transiently were stained for expression of surface CD45RA, CD45RO, and CD62L to define Tscm, Tcm, Tem, and Teff cells; Tscm (CD45RA^+CD45RO^−CD62L), Tcm (CD45RA^−CD45RO^+CD62L^+), Tem (CD45RA^−CD45RO^+CD62L^−), Teff ([…]CD62L^−). All samples were performed in duplicate, and data is shown in bar graph where error bars represent standard deviation.

The next series concerns Allo CAR-T cells. In words: Expansion of Allo CAR-T cells with WT or mutant (D111H) CSR CD2z. Type of series: cell-based, human. The following applies: up to 15-day culture; CSR stable or transient. The text has this:
FIG. 24A is a bar graph showing that the delivery of CSR CD2z-D111H mutant enhances the expansion of Allo CAR-T cells. Pan T cells isolated from healthy donor blood were genetically modified using the piggyBac® DNA modification system in combination with the Cas-CLOVER™ gene-editing system (CC) for the production of allogeneic (Allo) CAR-T cells, or without CC gene-editing, as a control, for the production of autologous (Auto) CAR-T without a CSR (No CSR); auto CAR-T cells were produced by nucleofection of an mRNA encoding the super piggyBac™ transposase enzyme (SPB) and a transposon encoding a CAR, selection gene and a safety switch. […] Following EP, all cells were subsequently stimulated with a cocktail of agonist mAbs anti-CD2, anti-CD3 and anti-CD28, and were later selected for genetic modification over the course of up to a 15-day culture period using the selection gene. At the end of the initial culture period, all T cells expressed the CAR, indicating successful selection for genetically-modified cells (data not shown), and then all non-edited TCR-positive cells were depleted via negative selection to yield a population of Allo CAR-T cells that were >99% TCR-negative (data not shown).

Where [2] appears, read: CAR-T cells with transient (mRNA) or stable (piggyBac) CSR.

For “CD28z CSR: chimeric stimulatory receptor: CD28 signal peptide, extracellular, transmembrane and cytoplasmic domains with CD3z intracellular domain (SEQ ID NO: 17060)”, the “in vitro cytotoxicity (luciferase signal)” value in the series on eK562-Luc.BCMA (setting [2]) and with eK562-Luc.BCMA (DKO CAR-T cells) was “not significantly affected” throughout. For the same molecule, the “memory phenotype (Tscm, Tcm, Tem, Teff)” value in series [1] is “significantly more differentiated, favoring Tcm and Tem cells”.

B1: CD2z CSR: chimeric stimulatory receptor: CD2 signal peptide, extracellular, transmembrane and cytoplasmic domains with CD3z intracellular domain (SEQ ID NO: 17062) (protein)
chain: MSFPCKFVASFLLIFNVSSKGAVSKEITNALETWGALGQDINLDIPSFQMSDDIDDIKWEKTSDKKKIAQFRKEKETFKEKDTYKLFKNGTLKIKHLKTDDQDIYKVSIYDTKGKNVLEKIFDLKIQERVSKPKISWTCINTTLTCEVMNGTDPELNLYQDGKHLKLSQRVITHKWTTSLSAKFKCTAGNKVSKESSVEPVSCPEKGLDIYLIIGICGGGSLLMVFVALLVFYITKRKKQRSRRNDEELETRAHRVATEERGRKPHQIPASTPQNPATSQHPPPPPGHRSQAPSHRPPPPGHRVQHQPQKRPPAPSGTQVHQQKGPPLPRPRVQPKPPHGAAENSLSPSSNRVKFSRSADAPAYKQGQNQLYNELNLGRREEYDVLDKRRGRDPEMGGKPRRKNPQEGLYNELQKDKMAEAYSEIGMKGERRRGKGHDGLYQGLSTATKDTYDALHMQALPPR
Take B1: the “peak expansion of Allo CAR-T cells compared to Allo CAR-T cells produced without a CSR” value with Allo CAR-T cells is “a greater degree of expansion”. Further, the “in vitro cytotoxicity (luciferase signal)” value in the series with eK562-Luc.BCMA (setting [2]) and in the series with eK562-Luc.BCMA (DKO CAR-T cells) was “not significantly affected” throughout. Moreover, in series [1], the “memory phenotype (Tscm, Tcm, Tem, Teff)” value was “comprised predominantly of exceptionally high levels of favorable Tscm and Tcm cells”.
